Laboratory results from patent publication US20050008648A1 (BOARD OF TRUSTEES OF THE UNIVERSITY OF ILLINOIS, published 2005).

Molecular target: the molecule itself
Assay: X-ray crystal structure
Excerpt: Crystals were transferred to a cryoprotectant solution that in the case of the citrate condition was made of mineral oil (Sigma) while for the crystals grown in PEG it was composed of the mother liquor and 10% (w/v) xylitol-10% (w/v) sucrose. Once the crystals were mounted in loops, they were frozen by directly immersing them in liquid nitrogen. X-ray data were collected at the Advanced Photon Source using the BioCARS beamlines BM-C and BM-D, and the SERCAT beamline ID-22.
Data for the MAD data set were collected to 2.3 Å resolution. A partially built model into the MAD electron density was used to solve the tetragonal crystals. […] The ligands were refined without conformational torsion-angle restraints in order to prevent bias towards a particular ring conformation for the sugars.

B1: Human deoxycytidine kinase (dCK) (enzyme)
chain: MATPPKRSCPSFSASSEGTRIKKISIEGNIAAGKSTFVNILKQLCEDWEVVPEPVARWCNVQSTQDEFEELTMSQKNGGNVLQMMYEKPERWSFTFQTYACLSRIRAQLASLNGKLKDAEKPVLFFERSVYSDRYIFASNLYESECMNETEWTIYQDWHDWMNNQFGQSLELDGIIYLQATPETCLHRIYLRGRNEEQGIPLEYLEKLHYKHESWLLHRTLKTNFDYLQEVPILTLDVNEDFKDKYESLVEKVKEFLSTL
notes: Made in E. coli with a His-tag that was cleaved by thrombin; The selenomethionine-substituted protein was used for MAD phasing; Residues 1 to 19 were not seen in the electron density; Crystallized with dC, ara-C or gemcitabine and ADP; also called human dCK; wild type dCK
binding result: binds
